The nature of the series: self-splicing fitness, log relative to wild type (ln ratio); higher = more splicing; Tetrahymena group I intron in knt gene, E. coli kanamycin selection, DiMSum; sequences stand for … in CUCUCU…GGAGGGAAAAGUUAUCAGGCAUGCACCUGGUAGCUAGUCUUUAAACCAAUAGAUUGCAUCGGUUUAAAAGGCAAGACCGUCAAAUUGCGGGAAAGGGGUCAACAGCCGUUCAGUACCAAGUCUCAGGGGAAACUUUGAGAUGGCCUUGCAAAGGGUAUGGUAAUAAGCUGACGGACAUGGUCCUAACCACGCAGCCAAGUCCUAAGUCAACAGAUCUUCUGUUGAUAUGGAUGCAGUUCACAGACUAAAUGUCGGUCGGGGAAGAUGUAUUCUUCUCAUAAGAUAUAGUCGGACCUCUCCUUAAUGGGAGCUAGCGGAUGAAGUGAUGCAACACUGGAGCCGCUGGGAACUAAUUUGUAUGCGAAAGUAUAUUGAUUAGUUUUGGAGUACUCGUGGUCG
The method in brief: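 Colonies from six replicate transformations of E. coli BL21(DE3) were pooled and amplicon-sequenced on an Illumina HiSeq 2500. The library placed an intron with all eight P1ex-region nucleotides randomised inside the knt kanamycin-resistance gene on pET-22b(+), and cells grew overnight at 37°C or 30°C on LB agar with or without 25 μg/mL kanamycin (plus 100 μg/mL carbenicillin, 50 μM IPTG, 0.2% rhamnose). Fitness is the DiMSum error-weighted combination of wild-type-normalised replicate fold changes, kanamycin versus none.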

± gives the uncertainty stated by the source.

Regarding GGUCAGCAAUAUUACGGUCC, the “self-splicing fitness (ln)” value (30 °C) is -3.1 ± 0.39 and the “self-splicing fitness (ln)” value (37 °C) is -1.81 ± 0.37. In the case of UUUUAGCAAUAUUACGACUU, the “self-splicing fitness (ln)” value by setting is: (30 °C) -1.64 ± 0.32; (37 °C) -1.14 ± 0.33. In the case of CCGCAGCAAUAUUACGCGAG, the “self-splicing fitness (ln)” value was -3.17 ± 0.12 (30 °C) and -2.2 ± 0.16 (37 °C).

AUCGAGCAAUAUUACGUUUC: for the setting “37 °C”, the “self-splicing fitness (ln)” value was -2.81 ± 0.31. CUCAAGCAAUAUUACGGACU: the “self-splicing fitness (ln)” value by setting is: (30 °C) -2.42 ± 0.15; (37 °C) -1.36 ± 0.2. Taken in the same sequence, the figures for UCCUAGCAAUAUUACGUGAG were -2.64 ± 0.14 and -1.94 ± 0.17. The matching figures for UUGCAGCAAUAUUACGGCAA: -3.02 ± 0.23 and -2.27 ± 0.24. With AUCAAGCAAUAUUACGUUAC, the “self-splicing fitness (ln)” value is, setting by setting: (30 °C) -5.49 ± 0.45; (37 °C) -2.82 ± 0.27. Turning to CUGUAGCAAUAUUACGUCUG, the “self-splicing fitness (ln)” value reads like this: (30 °C) -0.298 ± 0.088; (37 °C) 0.128 ± 0.1. The matching figures for UAACAGCAAUAUUACGGACC: -3.44 ± 0.43 and -1.98 ± 0.28. The matching figures for UGGCAGCAAUAUUACGUAAG: -0.674 ± 0.049 and 0.00441 ± 0.073. Taken in the same sequence, the figures for CAUAAGCAAUAUUACGAUCA were -2.28 ± 0.21 and -1.87 ± 0.2. Regarding AUAUAGCAAUAUUACGCCAU, the “self-splicing fitness (ln)” value runs as follows: (30 °C) -1.32 ± 0.18; (37 °C) -1.38 ± 0.21. As to UCCUAGCAAUAUUACGAGAU, the “self-splicing fitness (ln)” value is -2.85 ± 0.16 (30 °C) and -1.7 ± 0.19 (37 °C). GUUGAGCAAUAUUACGCGUG: the “self-splicing fitness (ln)” value was -3.36 ± 0.15 (30 °C) and -2.66 ± 0.21 (37 °C).

AAAAAGCAAUAUUACGGCCC: the “self-splicing fitness (ln)” value is -0.786 ± 0.22 (30 °C) and 0.00498 ± 0.23 (37 °C).

For AUGCAGCAAUAUUACGAUCU, the “self-splicing fitness (ln)” value is -0.511 ± 0.084 (30 °C) and 0.285 ± 0.13 (37 °C). The matching figures for UUACAGCAAUAUUACGGAGC: -3.42 ± 0.38 and -1.79 ± 0.35. For UCCCAGCAAUAUUACGAGUA, the “self-splicing fitness (ln)” value is, setting by setting: (30 °C) -1 ± 0.072; (37 °C) -0.558 ± 0.069. As to UUUAAGCAAUAUUACGCGGC, the “self-splicing fitness (ln)” value (37 °C) was -2.78 ± 0.31. On to CGAAAGCAAUAUUACGUUGC, for which the “self-splicing fitness (ln)” value by setting is: (30 °C) -4.09 ± 0.17; (37 °C) -3.23 ± 0.2. Taken in the same sequence, the figures for GGUUAGCAAUAUUACGGUAC were -1.21 ± 0.11 and -0.6 ± 0.15. Taken in the same sequence, the figures for GAGGAGCAAUAUUACGGAUG were -3.77 ± 0.27 and -2.48 ± 0.24.

For GGAAAGCAAUAUUACGACCU, the “self-splicing fitness (ln)” value is, setting by setting: (30 °C) -0.756 ± 0.15; (37 °C) -0.363 ± 0.18. Take AAUGAGCAAUAUUACGCCGU: the “self-splicing fitness (ln)” value (37 °C) was -2.55 ± 0.26. In the case of GAACAGCAAUAUUACGAAUC, the “self-splicing fitness (ln)” value (30 °C) is -1.76 ± 0.08 and the “self-splicing fitness (ln)” value (37 °C) is -1.9 ± 0.13. Taken in the same sequence, the figures for AAGUAGCAAUAUUACGCACA were -0.522 ± 0.088 and -0.00649 ± 0.14. GUCCAGCAAUAUUACGUGGG: the “self-splicing fitness (ln)” value was -3.68 ± 0.13 (30 °C) and -2.36 ± 0.14 (37 °C). Taken in the same sequence, the figures for AGGAAGCAAUAUUACGCGGG were -1.85 ± 0.18 and -1.67 ± 0.14. The matching figures for GGCUAGCAAUAUUACGGAUG: -0.642 ± 0.13 and -0.56 ± 0.15. Taken in the same sequence, the figures for CGUCAGCAAUAUUACGAUGA were -0.998 ± 0.11 and 0.0314 ± 0.11. Take GGACAGCAAUAUUACGCCGC: the “self-splicing fitness (ln)” value (37 °C) was -1.06 ± 0.5. Turning to CGGCAGCAAUAUUACGUCGA, the “self-splicing fitness (ln)” value (30 °C) was -3.24 ± 0.19 and the “self-splicing fitness (ln)” value (37 °C) was -1.07 ± 0.15. The matching figures for UUACAGCAAUAUUACGAUAU: -1.83 ± 0.11 and -0.951 ± 0.14.

In the case of AUCUAGCAAUAUUACGCGGA, the “self-splicing fitness (ln)” value (30 °C) is -1.69 ± 0.26 and the “self-splicing fitness (ln)” value (37 °C) is -2.53 ± 0.23. Taken in the same sequence, the figures for UCGCAGCAAUAUUACGCCUG were -3.14 ± 0.23 and -1.28 ± 0.2.

As to CCUAAGCAAUAUUACGACGC, the “self-splicing fitness (ln)” value (37 °C) was -1.59 ± 0.42. AUAUAGCAAUAUUACGUGAU: the “self-splicing fitness (ln)” value runs as follows: (30 °C) -1.4 ± 0.092; (37 °C) -0.895 ± 0.14. Turning to GCUCAGCAAUAUUACGGUGU, the “self-splicing fitness (ln)” value reads like this: (30 °C) -1.3 ± 0.062; (37 °C) 0.0463 ± 0.076.

These data come from the supplement of paper PMC7877785.
